Experimental findings from US20200247894A1 (Regeneron, published 2020) are described below.

Where a chain is given by its changes, count along the chain named.

The target in experiment [1] is T1, Mouse IL2Rγ extracellular domain expressed with a C-terminal myc-myc-hexahistidine tag (mouse).
T1 construct: whole entry is the tagged construct; also called mIL-2Rg-MMH
T1 chain: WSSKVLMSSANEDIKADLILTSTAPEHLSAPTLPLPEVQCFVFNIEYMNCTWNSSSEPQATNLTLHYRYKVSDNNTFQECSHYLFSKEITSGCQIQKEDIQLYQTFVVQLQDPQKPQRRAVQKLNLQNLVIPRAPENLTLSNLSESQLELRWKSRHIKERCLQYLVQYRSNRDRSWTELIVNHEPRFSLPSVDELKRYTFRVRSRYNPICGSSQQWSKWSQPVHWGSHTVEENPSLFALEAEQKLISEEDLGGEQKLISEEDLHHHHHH
Nature of the experiment: SPR Biacore 4000, anti-hFc-captured mAb, 37 C. The procedure: (§1) Equilibrium dissociation constants (KD values) for IL-2Rγ binding to purified anti-IL2Rγ monoclonal antibodies were determined using a Biacore 4000 instrument equipped with a real-time surface plasmon resonance biosensor. All binding studies were performed in 10 mM HEPES, 150 mM NaCl, 3 mM EDTA, and 0.05% v/v Surfactant Tween-20, pH 7.4 (HBS-ET) running buffer at 25° C. and 37° C. The Biacore sensor surface was first derivatized by amine coupling with a monoclonal mouse anti-human Fc antibody (GE, # BR-1008-39) to capture anti-IL2Rγ monoclonal antibodies.
(§2) The dissociation of monoclonal antibody bound IL2Rγ reagents were monitored for 8-10 minutes in HBS-ET running buffer. Kinetic association (kₐ) and dissociation (kd) rate constants were determined by fitting the real-time sensorgrams to a 1:1 binding model using Scrubber 2.0c curve fitting software. Binding dissociation equilibrium constants (KD) and dissociative half-lives (t_{1/2}) were calculated from the kinetic rate constants as: […]

Experiment [2] deals with T2, Macaca fascicularis IL2Rγ extracellular domain expressed with a C-terminal myc-myc-hexahistidine tag (Macaca fascicularis).
T2 construct: whole entry is the tagged construct; also called mfIL-2Rg-MMH
T2 chain: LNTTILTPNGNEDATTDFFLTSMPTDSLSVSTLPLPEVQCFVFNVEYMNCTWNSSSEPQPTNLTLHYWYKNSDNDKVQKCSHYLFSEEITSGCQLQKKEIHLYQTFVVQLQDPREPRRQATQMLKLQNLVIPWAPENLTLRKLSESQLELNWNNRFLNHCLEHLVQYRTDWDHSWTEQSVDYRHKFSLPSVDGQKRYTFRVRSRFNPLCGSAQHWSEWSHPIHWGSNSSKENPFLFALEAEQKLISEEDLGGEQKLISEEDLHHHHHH
Description: SPR Biacore 4000, anti-hFc-captured mAb, 37 C. The procedure: as §1, §2

The target in experiment [3] is T3, Rat IL2Rγ extracellular domain expressed with a C-terminal myc-myc-hexahistidine tag (rat).
T3 construct: whole entry is the tagged construct; also called rIL-2Rg-MMH; rat IL-2Rg-MMH
T3 chain: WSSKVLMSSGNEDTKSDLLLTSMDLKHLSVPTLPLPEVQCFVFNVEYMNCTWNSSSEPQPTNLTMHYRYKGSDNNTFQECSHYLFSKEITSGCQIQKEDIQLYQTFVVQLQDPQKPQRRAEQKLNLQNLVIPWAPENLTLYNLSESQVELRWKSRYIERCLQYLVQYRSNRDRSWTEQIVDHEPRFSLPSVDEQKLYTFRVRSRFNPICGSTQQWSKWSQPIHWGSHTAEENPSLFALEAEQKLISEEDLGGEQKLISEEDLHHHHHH
Description: SPR Biacore 4000, anti-hFc-captured mAb, 37 C. The method, then: as §1, §2

Experiment [4] concerns the target T1, Mouse IL2Rγ extracellular domain …. Nature of the experiment: SPR Biacore 4000, anti-hFc-captured mAb, 25 C. The procedure: as §1, §2
The target of experiment [5] is T3, Rat IL2Rγ extracellular domain …. Nature of the experiment: SPR Biacore 4000, anti-hFc-captured mAb, 25 C. The procedure:
as §1, §2

For experiment [6], the target named is T4, mouse IL-2Rγ endogenously expressed on MC/9 cells (mouse, UniProt P34902 23-369).
T4 construct: whole, on cells
T4 sequence (looked up): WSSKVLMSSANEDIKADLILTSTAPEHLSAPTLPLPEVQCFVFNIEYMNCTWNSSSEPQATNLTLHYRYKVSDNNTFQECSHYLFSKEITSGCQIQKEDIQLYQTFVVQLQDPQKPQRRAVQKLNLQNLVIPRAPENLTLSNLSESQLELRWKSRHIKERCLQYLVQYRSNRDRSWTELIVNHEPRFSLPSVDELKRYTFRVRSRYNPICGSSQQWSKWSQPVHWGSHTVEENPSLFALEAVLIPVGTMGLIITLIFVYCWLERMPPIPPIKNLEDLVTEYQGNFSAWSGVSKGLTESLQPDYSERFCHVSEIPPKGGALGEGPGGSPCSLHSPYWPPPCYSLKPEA
Nature of the experiment: flow cytometry, 10 ug/ml antibody, MC/9 cells (endogenous mouse IL-2Rg). The procedure:
For flow cytometry analyses, the cells were pre-incubated with mouse IgG at 100 μg/ml for 15 minutes at room temperature (RT) to block the binding of the antibodies to Fc receptors. […] Cells were washed, fixed using BD CytoFix™ (BD biosciences, #554655) and analyzed on an IQue® (Intellicyt®) Flow Cytometer or Accuri Flow cytometer (BD). […] The results were analyzed using ForeCyt® (IntelliCyt®) software to determine the geometric means of fluorescence (MFI) for viable cells. Binding ratios were calculated by normalizing the MFI of the test sample by the MFI of the unstained sample.

B1: H4H12899P (antibody, human IgG4 S228P, kappa, V domains shown)
VH: QVQLVESGGDLVKPGGSLRLSCATSGFTFSDFYMTWIRQAPGKGLEWISYISNSGSIVKYADSVKGRFTISRDNAKNSLYLQMNSLRAEDTAIYYCARFYGDRWGQGTLVTVSS
VL: DIQLTQSPSFLSASVGDRVTITCWASQGISTFLAWYQQKPGKAPKLLIYAASTLQSGVPSRFSGSGSGTDFTLTISSLQPEDFATYHCQQLNNYPWTFGQGTKVEIKR
notes: fully human anti-IL2Rgamma mAb, human IgG4 Fc
With B1, in experiment [1], the “100 nM Ag Bound” value came to 19 RU, the dissociation constant Kd was 55.9 nM, the koff was determined as 0.0108 s⁻¹ and the kon stood at 193000 M⁻¹ s⁻¹. The t1/2 in experiment [1] is 1.1 min. In experiment [2], the “100 nM Ag Bound” value came to 31 RU; the affinity, expressed as Kd, was 6.71 nM; the koff came to 0.00216 s⁻¹; the association rate constant (kon) worked out at 322000 M⁻¹ s⁻¹. The molecule also gave a t1/2 in experiment [2] of 5 min. For the same molecule, in experiment [3], the “100 nM Ag Bound” value came out at 16 RU, binding was characterised by a dissociation constant (Kd) of 51.6 nM, the off-rate (koff) was 0.00753 s⁻¹ and the kon amounted to 146000 M⁻¹ s⁻¹. The same molecule displayed a t1/2 in experiment [3] of 1.5 min. In addition, in experiment [4], the “100 nM Ag Bound” value worked out at 51 RU; the affinity, expressed as Kd, was 18.4 nM; the off-rate (koff) was 0.00167 s⁻¹; the kon worked out at 90600 M⁻¹ s⁻¹. Further, the t1/2 in experiment [4] was 7 min. Besides, in experiment [5], the “100 nM Ag Bound” value came out at 39 RU, the Kd amounted to 21.7 nM, the koff stood at 0.00153 s⁻¹ and the kon turned out to be 70400 M⁻¹ s⁻¹. In experiment [5], this molecule returned a t1/2 of 8 min.

B2: H4H12900P (antibody, human IgG4 S228P, kappa, V domains shown)
VH: QVQLVESGGGLVKPGGSLRLSCEASGFTFNDFYMTWIRQAPGKGLEWIAYISKSGDKMRYADSVKGRFSTSRDNAKNSLSLQMNSLRAEDTAVYYCARFYGDIWGQGTLVTVSS
VL: B1 VL with G28D, T31S, A34V, K45N, T53A, D70E, T85S, H87Y, Q89E
notes: as for B1
For the molecule B2, in experiment [1], the “100 nM Ag Bound” value was 32 RU, the Kd was 6.11 nM, the koff was 0.00317 s⁻¹ and the kon was determined as 519000 M⁻¹ s⁻¹. The molecule further registered a t1/2 in experiment [1] of 4 min. In experiment [2], the “100 nM Ag Bound” value is 38 RU, the Kd was found to be 3.18 nM, the koff turned out to be 0.00154 s⁻¹ and the kon came out at 483000 M⁻¹ s⁻¹. In experiment [2], this molecule showed a t1/2 of 8 min. For the same molecule, in experiment [3], the “100 nM Ag Bound” value amounted to 27 RU, the Kd worked out at 8.7 nM, the koff is 0.00363 s⁻¹ and the kon worked out at 417000 M⁻¹ s⁻¹. Moreover, in experiment [3], the t1/2 worked out at 3.2 min. Also, in experiment [4], the “100 nM Ag Bound” value is 76 RU, the Kd amounted to 3.76 nM, the off-rate constant (koff) was 0.000467 s⁻¹ and the kon turned out to be 124000 M⁻¹ s⁻¹. Moreover, in experiment [4], the t1/2 worked out at 25 min. In experiment [5], the “100 nM Ag Bound” value was determined as 57 RU, the Kd came out at 6.02 nM, the koff turned out to be 0.000619 s⁻¹ and the kon amounted to 103000 M⁻¹ s⁻¹. Also, the t1/2 in experiment [5] was found to be 19 min.

B3: H4H12890P (antibody, human IgG4 S228P, kappa, V domains shown)
VH: EVQLVESGGGLVQPGGSLRLSCAASGFTFNNYAMHWVRQAPGKGLEYVSSISSSGGSTYYEDSVKGRFTISRDNSKNTLYLQMGSLRAEDMAVYYCARSFYGSGTYYDTFDMWGQGTMVTVSS
VL: DIQMTQSPSSLSASIGDRVTITCRASQSISRYLNWYQQKPGKAPKLLIYAASSLQSGVPSRFSASGSGTDFTLTISSLQPEDFATYYCQQSYSTPFTFGQGTKLEIKR
notes: as for B1
On to B3, for which the “100 nM Ag Bound” value in experiment [1] is 1 RU. Moreover, in experiment [2], the “100 nM Ag Bound” value was found to be 20 RU; the affinity, expressed as Kd, was 14 nM; the koff was found to be 0.00131 s⁻¹; the kon worked out at 93600 M⁻¹ s⁻¹. Besides, the t1/2 in experiment [2] worked out at 9 min. In addition, the “100 nM Ag Bound” value in experiment [3] was determined as 0 RU. In experiment [4], the “100 nM Ag Bound” value is 1 RU and the binding result is on record as “no binding (tested: 100 nM)”. In experiment [5], the “100 nM Ag Bound” value came to 0 RU and the binding result was “no binding (tested: 100 nM)”.

B4: H4H12857P (antibody, human IgG4 S228P, kappa, V domains shown)
VH: EVQLVESGGGVVRPGGSLRLSCAASGFTFDDFDMSWVRQGPGKGLEWVSGINWHGSSTGYADSVKGRFTISRDNAKNSLYLQMSSLRAEDTALYHCVRGGTIVGATTPLDYWGQGTLVTVSS
VL: DIQMTQSPSSLSASVGDRVTMTCRASRTISSYLSWYQQKSGKVPNLLIFGASSLQSGVPSRFSASGSGTDFTLIISSLQPEDFATYYCQQSYSSPLTFGGGTKVEIKR
notes: fully human anti-IL2Rgamma mAb, human IgG4 Fc; also called REGN9432
Take B4: the “100 nM Ag Bound” value is 1 RU in experiment [1], 1 RU in experiment [3], 5 RU in experiment [4] and 1 RU in experiment [5]. Moreover, the binding result in experiment [4] and in experiment [5] was “no binding (tested: 100 nM)” each time.

B5: H4H12857P (antibody, human IgG4 S228P, kappa, V domains shown)
VH: B4 VH
VL: B4 VL
notes: fully human anti-IL2Rg antibody, human IgG4; also called REGN9432
B5: in experiment [6], the “Binding Ratio (Sample over unstained MFIs)” value came to 1 and the “Raw MFI” value was determined as 198 MFI.

B6: H4H12927P2 (antibody, human IgG4 S228P, kappa, V domains shown)
VH: EVQLVESGGGVVRPGGSLRLSCATSGFTFDDYGMSWVRQVPGKGLEWVSSVNRNGGTTDYADSVKGRFTISRDNAKRSLFLQMNSLRAEDTALYHCATGELFFDYWGQGTLVTVSS
VL: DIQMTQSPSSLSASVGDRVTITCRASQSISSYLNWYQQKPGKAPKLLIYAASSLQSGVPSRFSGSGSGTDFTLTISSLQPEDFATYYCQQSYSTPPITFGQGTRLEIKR
notes: as for B1
As to B6, the “100 nM Ag Bound” value in experiment [1] stood at 1 RU; in experiment [3] it was 1 RU; in experiment [4], 1 RU; in experiment [5], 2 RU. Moreover, the binding result in experiment [4] and in experiment [5] was “no binding (tested: 100 nM)” in each case.

B7: H4H12859P (antibody, human IgG4 S228P, kappa, V domains shown)
VH: QVQLVQSGAEVKKPGASVRVSCKASGYTFTDYDIHWVRQAPGHGLEWMGWINPNSGGTNYAQKFQGRVTMTRDTSISTVYMDLSRLRSDDTAVYYCARADYSSSYYYYGMDVWGQGTTVTVSS
VL: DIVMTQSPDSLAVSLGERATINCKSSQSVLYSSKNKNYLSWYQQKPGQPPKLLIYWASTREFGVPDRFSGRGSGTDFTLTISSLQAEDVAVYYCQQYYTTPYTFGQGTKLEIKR
notes: as for B1
In the case of B7, in experiment [1], the “100 nM Ag Bound” value was found to be 0 RU. Also, in experiment [2], the “100 nM Ag Bound” value is 10 RU, the Kd turned out to be 320 nM, the koff is 0.0201 s⁻¹ and the association rate constant (kon) amounted to 62800 M⁻¹ s⁻¹. The molecule further gave a t1/2 in experiment [2] of 0.6 min. Besides, the “100 nM Ag Bound” value in experiment [3] was determined as 1 RU. In experiment [4], the “100 nM Ag Bound” value is 2 RU and the binding result is on record as “no binding (tested: 100 nM)”. In experiment [5], the “100 nM Ag Bound” value is 2 RU and the binding result is recorded as “no binding (tested: 100 nM)”.
